Here are results for twelve molecules from paper PMC4739419, “Mutations in the nucleotide binding and hydrolysis domains of Helicobacter pylori MutS2 lead to altered biochemical activities and inactivation of its in vivo function” (BMC Microbiology, 2016).

In series [1] the test system is Nc1ncnc2c1ncn2[C@@H]1O[C@H](COP(=O)(O)OP(=O)(O)OP(=O)(O)O)[C@@H](O)[C@H]1O. Put plainly: purified protein, by the assay type. The conditions noted are these: pH 8.0; 37.0 °C.
Series [2] addresses T1, HpMutS2 (Helicobacter pylori, UniProt O25338).
T1 construct: (A) HpMutS2 (1-762): Mol. wt; (kDa): 87.8; His6 (C); made in house; host or cells: E. coli Rosetta (DE3) pLysS
In kind it is biochemical. The conditions noted are these: for support of HpMutS2 ATPase activity by metal ion: metal ion 5 mM, ATP 100 μM, HpMutS2 45 nM, 37 °C, 30 min. The protocol: To delineate the characteristics of the ATPase activity of HpMutS2, we initially determined the metal ion requirement for ATP hydrolysis by HpMutS2. Purified HpMutS2 was incubated with excess of cold ATP (100 μM) with or without metal ions (5 mM each), and ATP hydrolysis monitored by thin layer chromatography using radiolabeled ATP [γ-^32P] as tracer.
Additional files 1: Figure S1. Multiple sequence alignment of MutS2 proteins from different H. pylori strains. Multiple sequence alignment of MutS2 proteins from different bacteria was carried out using Clustal Omega (http://www.ebi.ac.uk/Tools/msa/clustalo/). The protein sequences were obtained from NCBI protein database. The conserved nucleotide binding Walker-A motif and nucleotde hydrolysis Walker-B motifs are framed. The arrow indicates H. pylori MutS2 protein sequence. Figure S2. ATPase activity of HpMutS2 and variants. (A) Divalent metal ion requirement for ATPase activity of HpMutS2. Mentioned divalent metal ions (5 mM each) were incubated separately with cold ATP (100 μM) with (+) or without (−) HpMutS2 (45 nM). After incubation at 37 °C for 30 min the reactions were stopped by EDTA (50 mM) and the products were separated by TLC. ATP [γ-^32P] was used as tracer to monitor the product formation. (B) Time dependent hydrolysis of ATP by HpMutS2. A mixture of cold ATP (1 mM) and ATP [γ-^32P] was incubated in presence of HpMutS2 (45 nM) at 37 °C . The reaction aliquots were removed at indicated time points. The reactions were stopped by adding EDTA (50 mM) and products were separated by TLC. […] (C) Effect of HpSmr domain deletion on ATPase activity of HpMutS2. Increasing concentrations of proteins were incubated with a mixture of cold ATP (1 mM) and ATP [γ-^32P] at 37 °C for 30 min. The reactions were processed as described in (A). […] Figure S3. Limited proteolysis. Proteins (4 μM) were incubated with chymotrypsin (1.25 ng) for 30 min at 37 °C. The heat denaturation of proteins was performed by heating them at 95 °C for 10 min. […] Reactions were stopped by adding 1X protease inhibitor cocktail (Sigma), heat denatured and the products were separated on SDS-PAGE (10 %). Lane M: Molecular weight marker. Protein bands were detected by staining with Coomassie Brilliant Blue. […]. […] (A-E) Effect of nucleotides on DNA binding properties of HpMutS2. Electrophoretic mobility shift assays were performed with indicated DNA substrates (0.16 nM) without and with nucleotides (1 mM). After incubation for 30 min on ice, the reaction mixture was electrophoresed on polyacrylamide gel (8 %). Schematic representation of DNA substrates used are shown at the left side of autoradiographs. Figure S5. Chase experiments. A preformed ssDNA-HpMutS2 complex was chased with increasing concentrations of (A) ATP (0.25–5 mM) and (B) ssDNA (7.5–500 nM). (C) A preformed SC pUC19 DNA-HpMutS2 complex was chased with increasing concentrations of ATP (0.25–5 mM) . The reactions were performed at 37 °C and the reaction mixture was electrophoresed on PAGE (8 %) in case of (A and B) or an agarose gel (0.8 %) in case of (C). The amount of displaced DNA was estimated by assuming the DNA without protein as 100 %. Figure S6. Western blot. Equal numbers of exponentially growing H. pylori cells were lysed in Laemmli buffer (1X) by boiling at 95 °C for 5 min. The proteins were separated by SDS-PAGE (10 %). The HpMutS2 and mutants were detected by probing with polyclonal antibodies against HpMutS2. Table S1. Sequence of oligonucleotides used to prepare DNA substrates. Table S2. DNA substrates used in this study (* represents position of ^32P). (PDF 636 kb)

Substrate in series [3]: Nc1ncnc2c1ncn2[C@@H]1O[C@H](COP(=O)(O)OP(=O)(O)OP(=O)(O)O)[C@@H](O)[C@H]1O
Put plainly: ATPase assay by thin layer chromatography with [γ-32P]ATP as tracer and cold ATP varied, 50 mM Tris pH 8.0, 50 mM NaCl, 1 mM DTT, 5 mM MgCl2, 37 °C, no DNA, Michaelis-Menten non-linear regression. The class given is biochemical.

Series [4] deals with the molecule itself. The experiment in a line: SEC; Superose-6 HR 10/30, buffer B (50 mM Tris pH 8.0, 100 mM NaCl), 0.3 ml/min, approximately 150 ug protein injected; mass from a plot of Ve/Vo versus log of molecular mass of standards. A general note: In gel filtration, larger molecules generally elute earlier.

For orientation: Km means the substrate concentration at which the rate is half of its maximum. As usually defined, the Vmax is the rate approached at saturating substrate. A word on the kcat: it is the number of substrate molecules converted per active site and unit of time at saturation. Turning to “HpMutS2-G338R (Helicobacter pylori 26695; G338R)”, in series [1], the Km amounted to 939.3 ± 489.2 µM, the Vmax is 0.64 µM/min and the kcat was 0.237 ± 0.0555 s⁻¹. Regarding `[Ni+2]` [Ni^2+], in series [2], the “support of HpMutS2 ATPase activity by metal ion” value (shortened to “support”) is given as “did not significantly support the ATPase activity”. As to `[Co+2]` [Co^2+], the “support” value in series [2] was “allowed the ATPase activity to various extents”. On to `[Cd+2]` [Cd ^2+], for which the “support” value in series [2] is on record as “allowed the ATPase activity to various extents”. Turning to `[Mg+2]` [Mg^2+], the “support” value in series [2] was “supported a strong ATPase activity”. `[Zn+2]` [Zn^2+]: in series [2], the “support” value was “allowed the ATPase activity to various extents”. `[Ca+2]` [Ca^2+]: in series [2], the “support” value was “allowed the ATPase activity to various extents”. On the same count and under the same terms, in the case of `[Cu+2]` [Cu^2+] it was “allowed the ATPase activity to various extents”; in that of `[Mn+2]` [Mn^2+], “allowed the ATPase activity to various extents”. With `O=C(O)CN(CCN(CC(=O)O)CC(=O)O)CC(=O)O` [EDTA], in series [2], the “effect on Mg2+ dependent ATPase activity” value is “inhibited”. Take “HpMutS2-E413A (Helicobacter pylori 26695; E413A)”: in series [1], the Michaelis constant (Km) came to 373.2 ± 188.6 µM, the maximal velocity (Vmax) turned out to be 0.19 µM/min and the turnover number (kcat) was determined as 0.0703 ± 0.011 s⁻¹.

B1: Helicobacter pylori MutS2 (enzyme, Helicobacter pylori strain 26695, UniProt O25338 1-762, looked up)
chain: MSDAPKRSLNPTLMMNNNNTPPKPLEESLDLKEFIALFKTFFAKERDTIALENDLKQTFTYLNEVDAIGLPTPKSVKESDLIIIKLTKLGTLHLDEIFEIVKRLHYIVVLQNAFKTFTHLKFHERLNAIVLPPFFNDLIALFDDEGKIKQGANATLDALNESLNRLKKESVKIIHHYARSKELAPYLVDTQSHLKHGYECLLLKSGFSGAIKGVVLERSANGYFYLLPESAQKIAQKIAQIGNEIDCCIVEMCQTLSHSLQKHLLFLKFLFKEFDFLDSLQARLNFAKAYNLEFVMPSFTQKKMILENFSHPILKEPKPLNLKFEKSMLAVTGVNAGGKTMLLKSLLSAAFLSKHLIPMKINAHHSIIPYFKEIHAIINDPQNSANNISTFAGRMKQFSALLSKENMLLGVDEIELGTDADEASSLYKTLLEKLLKQNNQIIITTHHKRLSVLMAENKEVELLAALYDEEKERPTYTFLKGVIGKSYAFETALRYGVPHFLIEKAKTFYGEDKEKLNVLIENSSALERELKQKNEHLENALKEQEYLKNAWLLEMEKQKEIFHNKKLELEKSYQQALNILKSEVASKDTSSMHKEIHKASEILSKHKTNQEIPQIITNFQANEKARYKNESVLIVQILDKGYYWIETELGMRLKAHGSLLKKIQKPPKNKFKPPKTTIPKPKEASLRLDLRGQRSEEALDLLDAFLNDALLGGFEEVLICHGKGSGILEKFVKEFLKNHPKVVSFSDAPINLGGSGVKIVKL
notes: MutS2 of Helicobacter pylori strain 26695, full length, cloned in pET28b; Tetramer by gel filtration; a small fraction elutes near the void volume as multimers; also called HpMutS2; wild-type HpMutS2
Broadly, the stoichiometry N is a count of units in the complex or per binding partner. B1: in series [3], the Michaelis constant (Km) was found to be 412.1 ± 83.43 µM, the maximum rate (Vmax) came out at 1.88 µM/min and the kcat worked out at 0.696 ± 0.048 s⁻¹. In addition, the “stoichiometry N” value in series [4] was determined as 4.
